Results: article doi:10.1101/2020.08.20.256677v1 (biorxiv, 2020)

How the values were obtained:
DnfA = DnfA (Alcaligenes ammonioxydans, UniProt A0ABX8SXK4); assay: biochemical
purified protein = substrate: NO; assay: purified protein; details: 480 μM FAD, 10 mM NADH, 21% O2, 0.6 μM DnfA, 30 °C, 25-400 μM NH2OH

Kd (DnfA)	Molecule	Km (purified protein)	kcat (purified protein)
160 ± 20 nM	NO [hydroxylamine]		
	DnfA (Alcaligenes ammonioxydans) (protein) MTIKSYETDDAVRNMLQKLSVLWKNRAAVNQELPDYNNLAFDPNKADFSECLLPFREHQAWLEAPEELKSQCLSYAWGIYNLKTIYVECNVVTPSCEDIIKTPPPSANRNLLQDVMSQALLDEALHTRMSIMACNYIYSMRGLQPLDFTNFNLVQWRNDILSQCSSESERRLTRFAIACASETLITDYLKTMAEDKSIQTICHEVTRTHAMDEWSHSSVFSFVASDIIHGLSQKEREHMRAVILRTVEMFANNEMGAWEKVFSMVNFPNARDILHDTGDSNEIGVYTGSVESLIERIGLNSKSGQAQAQDEQQEALQ	48.1 ± 6.0 µM	0.31 ± 0.02 s⁻¹
